{"source": "patent US20250066422A1", "about": "(published 2025)"}
{"target": "T1, HLA-A*0201 (human)", "T1 construct": "MHC monomer first loaded with a UV-sensitive peptide that is cleaved and exchanged for the test peptide; captured on streptavidin; also called peptide-receptive MHC molecules", "test": "UV-ligand exchange, streptavidin/anti-b2m sandwich ELISA", "description": "Candidate peptides for the vaccines according to the present invention were further tested for immunogenicity by in vitro priming assays. The individual peptide-MHC complexes required for these assays were produced by UV-ligand exchange, where a UV-sensitive peptide is cleaved upon UV-irradiation, and exchanged with the peptide of interest as analyzed. Only peptide candidates that can effectively bind and stabilize the peptide-receptive MHC molecules prevent dissociation of the MHC complexes. To determine the yield of the exchange reaction, an ELISA was performed based on the detection of the light chain (β2m) of stabilized MHC complexes.\n96 well MAXISorp plates (NUNC) were coated over night with 2ug/ml streptavidin in PBS at room temperature, washed 4× and blocked for 30 min at 37° C. in 2% BSA containing blocking buffer. Refolded HLAA*0201/MLA-001 monomers served as standards, covering the range of 8-500 ng/ml. Peptide-MHC monomers of the UV-exchange reaction were diluted 100 fold in blocking buffer. Samples were incubated for 1 h at 37° C., washed four times, incubated with 2ug/ml HRP conjugated anti-β2m for 1 h at 37° C., washed again and detected with TMB solution that is stopped with […]. Absorption was measured at 450 nm.", "units": {"Average exchange yield in %": "%"}}
{"binder": "AVVEFLTSV (synthetic peptide from DROSHA)", "note": "[DROSHA-001]", "Average exchange yield in %": 68}
{"binder": "FLVDGSWSV (synthetic peptide from COL12A1)", "note": "[COL12A1-002]", "Average exchange yield in %": 55}
{"binder": "KLVEFDFLGA (synthetic peptide from TACC3)", "note": "[TACC3-001]", "Average exchange yield in %": 54}
{"binder": "GLIEIISNA (synthetic peptide from SNRNP200)", "note": "[SNRNP20-001]", "Average exchange yield in %": 54}
{"binder": "SLFGNSGILENV (synthetic peptide from CEP192)", "note": "[CEP192-001]", "Average exchange yield in %": 56}
{"binder": "ALFPHLLQPV (synthetic peptide from CSE1L)", "note": "[CSE1-001]", "Average exchange yield in %": 55}
{"binder": "ALMDKEGLTAL (synthetic peptide from TANC2)", "note": "[TANC2-001]", "Average exchange yield in %": 71}
{"binder": "ALDENLHQL (synthetic peptide from ABCA13)", "note": "[ABCA13-002]", "Average exchange yield in %": 36}
{"binder": "FLLDGSANV (synthetic peptide from COL6A3)", "note": "[COL6A3-002]", "Average exchange yield in %": 81}
{"binder": "YLIHFPVSV (synthetic peptide from AKR1C1, AKR1C2)", "note": "[AKR-001]", "Average exchange yield in %": 13}
{"binder": "SLIEDLILL (synthetic peptide from SMYD3)", "note": "[SMYD3-001]", "Average exchange yield in %": 50}
{"binder": "KLLTEVHAA (synthetic peptide from ADAM8)", "note": "[ADAM8-001]", "Average exchange yield in %": 67}
{"binder": "TLWYRAPEV (synthetic peptide from CDK4/CDK6)", "note": "[CDK4-001]", "Average exchange yield in %": 45}
{"binder": "GVLENIFGV (synthetic peptide from PCNXL3)", "note": "[PCNXL3-001]", "Average exchange yield in %": 87}
{"binder": "RLLGPSAAADILQL (synthetic peptide from HUWE1)", "note": "[HUWE1-001]", "Average exchange yield in %": 45}
{"binder": "VLFPNLKTV (synthetic peptide from BNC1)", "note": "[BNC1-001]", "Average exchange yield in %": 43}
{"binder": "RLLDSVSRL (synthetic peptide from LAMC2)", "note": "[LAMC2-001]", "Average exchange yield in %": 61}
{"binder": "KILEDVVGV (synthetic peptide from TPX2)", "note": "[TPX2-001]", "Average exchange yield in %": 56}
{"binder": "TLYPHTSQV (synthetic peptide from VCAN)", "note": "[VCAN-001]", "Average exchange yield in %": 41}
{"binder": "AIMGFIGFFV (synthetic peptide from SEC61G)", "note": "[SEC61G-001]", "Average exchange yield in %": 18}
{"binder": "ALLRTVVSV (synthetic peptide from GALNT2)", "note": "[GALNT2-001]", "Average exchange yield in %": 73}
{"binder": "SLYKGLLSV (synthetic peptide from RAD54B)", "note": "[RAD54B-001]", "Average exchange yield in %": 48}
